The results in this text go back to US20100048482A1 (Stanford University, published 2010).

This assay addresses heat shock protein 90 (HSP90), endogenous, rat heart (rat, UniProt P82995 2-733, limits assumed). The experiment in a line: co-immunoprecipitation and western blot, mitochondria of rat hearts after IR with or without 1 µM ψεHSP90 peptide.

Experimental: 200-500 μg of mitochondrial or cytosolic protein was diluted into 1 ml of IP Lysis Buffer (150 mM NaCl, 10 mM Tris-HCl, 5 mM EDTA, 0.1% Triton X-100, pH=7.4, containing Sigma Protease Inhibitor 1 and Sigma Phosphatase Inhibitors 1 and 2). […] 10 μg of Protein A/G Beads (Santa Cruz Biotechnology) were added and the mixture was incubated overnight at 4° C. with inversion mixing. Beads were then centrifuged, washed 3× in IP Lysis Buffer, then re-suspended in sample buffer. Immunoprecipitated proteins were separated on 10% SDS-PAGE gels. […] A beads alone group was also included for each sample set to assess any non-specific protein binding to the beads.

B1: epsilon protein kinase C (εPKC), endogenous, rat heart (enzyme)
chain: MVVFNGLLKIKICEAVSLKPTAWSLRHAVGPRPQTFLLDPYIALNVDDSRIGQTATKQKTNSPAWHDEFVTDVCNGRKIELAVFHDAPIGYDDFVANCTIQFEELLQNGSRHFEDWIDLEPEGKVYVIIDLSGSSGEAPKDNEERVFRERMRPRKRQGAVRRRVHQVNGHKFMATYLRQPTYCSHCRDFIWGVIGKQGYQCQVCTCVVHKRCHELIITKCAGLKKQETPDEVGSQRFSVNMPHKFGIHNYKVPTFCDHCGSLLWGLLRQGLQCKVCKMNVHRRCETNVAPNCGVDARGIAKVLADLGVTPDKITNSGQRRKKLAAGAESPQPASGNSPSEDDRSKSAPTSPCDQELKELENNIRKALSFDNRGEEHRASSSTDGQLASPGENGEVRQGQAKRLGLDEFNFIKVLGKGSFGKVMLAELKGKDEVYAVKVLKKDVILQDDDVDCTMTEKRILALARKHPYLTQLYCCFQTKDRLFFVMEYVNGGDLMFQIQRSRKFDEPRSGFYAAEVTSALMFLHQHGVIYRDLKLDNILLDAEGHSKLADFGMCKEGILNGVTTTTFCGTPDYIAPEILQELEYGPSVDWWALGVLMYEMMAGQPPFEADNEDDLFESILHDDVLYPVWLSKEAVSILKAFMTKNPHKRLGCVAAQNGEDAIKQHPFFKEIDWVLLEQKKMKPPFKPRIKTKRDVNNFDQDFTREEPILTLVDEAIVKQINQEEFKGFSYFGEDLMP
notes: Endogenous protein in mitochondrial or cytosolic fractions of Wistar rat hearts, immunoprecipitated from lysate; also called PKCε; epsilon PKC
Take B1: the “fold increase in co-immunoprecipitation with ψεHSP90 peptide treatment against IR alone” value is around 4 fold.
